The results in this text go back to publication PMC5470874.

The data set deals with Matrin 3 (endogenous, HCT116 nuclear extract) (Homo sapiens (HCT116)). In words: pull-down + mass spectrometry. The settings on record: rMatrin 3 pulldown: 25 mM Tris-HCl pH 7.5, 150 mM KCl, 0.1% Triton X-100, 100 ug/ml BSA, 2 mM DTT, 5% glycerol, room temperature, 2 hr.

Take Bi-PINCR (full-length PINCR transcript): the binding signal (fold over Bi-LUC) (DOXO-treated nuclear extract) came out at 16 and the binding signal (fold over Bi-LUC) (untreated nuclear extract) was 8.
